Experimental data taken from patent US8535662B2, “Apyrase therapy for bleeding conditions” (Apt Therapeutics, Inc., priority 2010, dated 2013).

What was measured:
[1] = system: rats, embolic stroke (thrombus injection into internal carotid artery); test: Embolic stroke model in rats, apyrase agent with or without r-tPA (Example 1); type: in vivo, rat; conditions: brains at 3 days
Experimental: The following groups were included in this study:
(1) control (saline treated), n=11;
(2) apyrase agent at 0.75 mg/kg, n=4;
(3) apyrase agent at 2.25 mg/kg, n=4;
(4) r-tPA (at 10 mg/kg), n=4;
(5) apyrase agent at 0.75 mg/kg plus r-tPA (10 mg/kg) and
(6) apyrase agent at 2.25 mg/kg plus r-tPA (10 mg/kg) (n=10).
All the treatments were initiated at 2 h following thrombus injection into internal carotid artery. Infarct volume and behavioral deficit were determined at day 3 after the stroke.

[2] = system: Fischer 344 rats, lung isograft; test: Orthotopic left lung transplantation in rats after 18 hours of cold preservation, ischemia-reperfusion injury (Example 9); type: in vivo, rat; conditions: for TUNEL positive EC per 400× field: 4 hours after reperfusion, 0.66 mg/kg, N=7/group
Experimental: Fischer 344 rats (Harlan Sprague Dawley, Inc, Indianapolis, Ind.), weighing 250 to 300 grams, were subjected to orthotopic left lung transplantation.
The cuff technique (Robson, S. C., et al., Semin. Thromb. Hemost. (2005) 31:217 was used. In brief, after general anesthesia with intraperitoneal pentobarbital (65 mg/kg), mechanical ventilation, systemic heparinization (300 units), and median laparosternotomy, donor rat lungs were flushed through the main pulmonary artery with 20 mL of cold (4° C.) low-potassium dextran glucose solution at 20 cm H2O pressure. In apyrase agent-treated groups, 0.1 mg/L apyrase agent was added to the cold preservation medium. The heart-lung block was then removed with the lungs inflated at end-tidal volume. The left lung graft was isolated, prepared, and stored in low-potassium dextran glucose at 4° C. until transplantation. After 18 hours of cold preservation, recipient animals were anesthetized, intubated with a 14-gauge catheter, and underwent a left thoracotomy. The pulmonary vessels and bronchus were anastomosed with a standard cuff technique. In the sham group, the rats underwent anesthesia and thoracotomy alone. In apyrase agent-treated groups recipients received treatment intravenously through the internal jugular vein 7 minutes after graft reperfusion. In dose response studies apyrase agent was administered at a dose of either 0.07, 0.22 or 0.66 mg/kg of recipient weight. In all other studies apyrase agent was administered at a dose of 0.66 mg/kg of recipient weight. In the vehicle-treated groups, rats received a saline bolus 7 minutes after reperfusion.
The function of the left lung was assessed 4 hours after transplantation. Rats in each group were reanesthetized with pentobarbital. After tracheostomy, the animals were mechanically ventilated with 100% oxygen and a laparosternotomy was performed. The right hilar structures were clamped to isolate the left lung graft. The animals were ventilated for 5 minutes at a tidal volume of 1.5 mL, a respiratory rate of 100 breaths/min, and 1.0 cm H2O of positive end-expiratory pressure. Arterial blood gas analysis was performed with blood samples obtained from the ascending aorta. The lungs were flushed with 20 mL of cold (4° C.) saline solution, and the lung graft was excised and divided into 3 separate sections. The upper and middle sections were snap frozen. The upper section was used for enzyme-linked immunosorbent assay (ELISA) and the middle section was used for myeloperoxidase (MPO) assay. The lower section was weighed, dried at 70° C. for 48 hours, and then reweighed for calculation of the wet/dry (W/D) ratio.
Quantitative MPO activity was determined also previously described (Krawisz, J. E., et al., Gastroenterology (1984) 87:1344). Optical density was measured at 460 nm with a spectrophotometer (model PMQ II; Carl Zeiss, Oberkochen, Germany). Color development was linear from 5 minutes to 20 minutes. One unit of enzyme activity was defined as 1.0 optical density unit per minute per milligram of tissue protein at room temperature.
Proinflammatory cytokine and chemokine measurement was made on lung samples which were homogenized with T-PER Extraction Reagent (Pierce, Rockford, Ill.). Lung homogenates were centrifuged twice at 10,000 rpm at 4° C. for 5 min, and the supernatants were collected. The content of tumor necrosis factor-α (TNF-α, interleukin-1β (IL-1β) and macrophage inflammatory protein-2 (MIP-2) were determined by using ELISA kits (BioSource International, Inc, Camarillo, Calif.) in accordance with manufacturer's instructions.
For TUNEL assay, lung specimens harvested 4 hours after reperfusion were perfused with 20 mL isotonic sodium chloride solution and inflation fixed with 20 mL HistoChoice (Amresco Inc, Solon, Ohio). Specimens were cut, mounted, de-paraffinized, and then steam-treated with Dako target retrieval solution (Dako, Carpentaria, Calif.) and quenched with 3% hydrogen peroxide. […]

[3] = system: ADP-induced platelet aggregation; test: Ex vivo ADP-induced platelet aggregation in platelet-rich plasma after dosing rabbits; parameters: species or system rabbit
Description: Blood samples taken at various time points were heparinized.
Data are presented as relative light transmission versus time.

[4] = system: pigs, coronary injury with stenting; test: Coronary injury (balloon overstretch) and bare metal stent in pigs: platelet accumulation and luminal stenosis (Example 6); type: in vivo, pig; conditions: 30 days after stenting, six measurements in two pigs
Experimental: Coronary injury with or without stenting in pigs is regarded as the best preclinical model for simulation of human angioplasty (Touchard, A. G., et al., Thromb. Res. (2007) 120:477-484). One coronary artery was injured by balloon overstretch in each pig and the site of injury including some overlap with the non-injured vessel was covered with a single bare metal stent (BMS).
Accumulation of ^111In-labeled autologous platelets on the stents over the first 24 h was measured in 4/6 pigs in each group. Radiolabeled platelets were injected 15 min before the coronary catheterization and the hearts perfusion-fixed after 24 h to obtain the stented vessel segment for counting radiolabeled platelets.

[5] = system: ADP-induced platelet aggregation; test: Ex vivo ADP-induced platelet aggregation in platelet-rich plasma in pigs (Example 5); parameters: species or system pig
[6] = system: C57BL/6J mice, myocardial ischemia; test: Mouse model of cardiac ischemia/reperfusion injury (Example 8); type: in vivo; conditions: 24 hr reperfusion
Experimental: A mouse model of cardiac ischemia/reperfusion injury was used to determine the effect of apyrase agent on infarct size. Myocardial ischemia was produced in C57BL/6J mice via left anterior coronary artery ligation. Mice were treated with apyrase agent (1 mg/kg, IV) or saline 5 min prior to 60 min of experimentally-induced myocardial ischemia or 50 min after ischemia (n=6-8 per group). After 24 hr of reperfusion, hearts were excised and area at risk and infarct size were determined by Evan's blue and triphenyltetrazolium staining.

B1: sol CD39L3 R67G T69R (protein)
chain: EVLPPGLKYGIVLDAGSSGTRVYVYQWPAEKENNTGVVSQTFKCSVKGSGISSYGNNPQDVPRAFEECMQKVKGQVPSHLHGSTPIHLGATAGMRLLRLQNETAANEVLESIQSYFKSQPFDFRGAQIISGQEEGVYGWITANYLMGNFLEKNLWHMWVHPHGVETTGALDLGGASTQISFVAGEKMDLNTSDIMQVSLYGYVYTLYTHSFQCYGRNEAEKKFLAMLLQNSPTKNHLTNPCYPRDYSISFTMGHVFDSLCTVDQRPESYNPNDVITFEGTGDPSLCKEKVASIFDFKACHDQETCSFDGVYQPKIKGPFVAFAGFYYTASALNLSGSFSLDTFNSSTWNFCSQNWSQLPLLLPKFDEVYARSYCFSANYIYHLFVNGYKFTEETWPQIHFEKEVGNSSIAWSLGYMLSLTNQIPAESPLIRLPIEPPV
modifications: glycosylated; synthetically constructed apyrase
B1 was tested, and the “Hemorrhage #/total animals” value ([1]; apyrase agent 0.75 mg/kg (alone or plus r-tPA 10 mg/kg)) was 0/4, the “Hemorrhage #/total animals” value ([1]; apyrase agent 2.25 mg/kg (alone or plus r-tPA 10 mg/kg)) was 0/4 and the “pulmonary edema (wet to dry weight ratio)” value ([2]; 0.22 mg/kg IV, 4 hours) was “trended to lower mean levels”. The “lung function (arterial PO2) compared to saline-treated recipients” value ([2]; 0.22 mg/kg IV, 4 hours after transplantation) was “trend towards better lung function”, the “lung graft histopathology (hematoxylin and eosin) compared to saline-treated recipients” value ([2]; 0.66 mg/kg IV 7 minutes after reperfusion) was “less apparent alveolar hemorrhage and microvascular injury” and the “pulmonary edema (wet to dry weight ratio)” value ([2]; 0.66 mg/kg IV, 4 hours) was “significantly attenuated”. The “lung function (arterial PO2) compared to saline-treated recipients” value ([2]; 0.66 mg/kg IV, 4 hours after transplantation) was “significant improvement”, the “MPO activity in lung grafts” value ([2]; 4 hours) was “reduced” and the “expression of E-selectin on endothelial cells” value ([2]; 4 hours) was “reduced”. For the same molecule, the “ADP concentration in the BAL fluid relative to saline-treated recipients” value ([2]; 4 hours after engraftment) was “significantly lower concentrations”, the “ATP concentration in the BAL fluid relative to saline-treated recipients” value ([2]; 4 hours after engraftment) was “significantly lower concentrations” and the “TUNEL positive EC per 400× field” value [2] was “significantly fewer apoptotic EC”. For the same molecule, the “TUNEL positive EC per 400× field” value ([2]; listed as apyrase) was “three”, the “numbers of neutrophils recovered from the airways” value ([2]; 4 hours after transplantation) was “significant decrease” and the “total cells in the BAL” value ([2]; 4 hours after transplantation) was “significantly fewer cells”. The “intragraft level of TNFa (ELISA)” value ([2]; 4 hrs of reperfusion, saline about 75) was “about 35 pg/mg”, the “intragraft level of MIP-2 (ELISA)” value ([2]; 4 hrs of reperfusion, saline about 1,800) was “about 1,300 pg/mg” and the “intragraft level of IL-1β (ELISA)” value ([2]; 4 hrs of reperfusion, saline about 2,200) was “about 1,100 pg/mg”. For the same molecule, the “inhibition of ADP-induced platelet aggregation” value ([3]; 0.75 mg/kg IV single bolus, 10 mM ADP) was “more than 95%”, the “inhibition of ADP-induced platelet aggregation” value ([3]; 0.75 mg/kg IV, 6 h after dosing) was 70% and the “time point after dosing at which strong effects were observed (onset of antiplatelet action)” value ([3]; apyrase agent 0.75 mg/kg IV) was 5 min. For the same molecule, the average luminal stenosis [4] was 19.8±2%, the “persistence of platelet inhibition” value ([5]; 0.9-2.25 mg/kg IV) was “at least 5 h” and the “time after IV injection to >95% inhibition” value ([5]; 0.9-2.25 mg/kg IV) was no more than 5 min. For the same molecule, the “inhibition of ADP-induced aggregation” value ([5]; 0.9-2.25 mg/kg single IV bolus with aspirin and heparin) was greater than 95%, the “platelet aggregation by 24 h” value ([5]; 24 h after dosing) was “returned to normal” and the “reduction of infarct size compared to the control group” value ([6]; 1 mg/kg IV 5 minutes prior to ischemia, 60 min ischemia) was “approximately 50%”. For the same molecule, the “reduction of infarct size” value ([6]; 1 mg/kg IV 50 min after ischemia) was “approximately 50%”.
